substrate: C[C@@H](N)c1ccccc1; assay: HPLC of acetophenone, nonlinear regression; assay type: biochemical, Mycolicibacterium austroafricanum; settings: 20 mM D-fructose, 0.1 mM PLP, pH 6.0, 30°C
Source text: HPLC of acetophenone, nonlinear regression on MvTA

Protein	Km	kcat	kcat/Km
MvTA (Mycolicibacterium vanbaalenii PYR-1) (protein, homodimer; PLP on Lys195) MGIDTGTSNLVAVEPGAIREDTPAGSVIQYSDYEIDYSSPFAGGVAWIEGEYLPAEDAKISIFDTGFGHSDLTYTVAHVWHGNIFRLGDHLDRLLDGARKLRLDSGYTKDELADITKKCVSLSQLRESFVNLTITRGYGKRKGEKDLSKLTHQVYIYAIPYLWAFPPAEQIFGTTAVVPRHVRRAGRNTVDPTIKNYQWGDLTAASFEAKDRGARTAILMDADNCVAEGPGFNVCIVKDGKLASPSRNALPGITRKTVFEIAGAMGIEAALRDVTSHELYDADEIMAVTTAGGVTPINTLDGVPIGDGEPGPVTVAIRDRFWALMDEPGPLIEAIQY	0.71 mM	0.0127 s⁻¹	17.8 M⁻¹ s⁻¹
MvTA (Mycolicibacterium vanbaalenii PYR-1; A168E/H152N/H69K/K142P/K145R/L162I/R215G/S105P/S121M) (protein, homodimer; PLP on Lys195) MGIDTGTSNLVAVEPGAIREDTPAGSVIQYSDYEIDYSSPFAGGVAWIEGEYLPAEDAKISIFDTGFGKSDLTYTVAHVWHGNIFRLGDHLDRLLDGARKLRLDPGYTKDELADITKKCVMLSQLRESFVNLTITRGYGKRPGERDLSKLTNQVYIYAIPYIWAFPPEEQIFGTTAVVPRHVRRAGRNTVDPTIKNYQWGDLTAASFEAKDRGAGTAILMDADNCVAEGPGFNVCIVKDGKLASPSRNALPGITRKTVFEIAGAMGIEAALRDVTSHELYDADEIMAVTTAGGVTPINTLDGVPIGDGEPGPVTVAIRDRFWALMDEPGPLIEAIQY	3.93 mM	0.189 s⁻¹	48 M⁻¹ s⁻¹
MvTA (Mycolicibacterium vanbaalenii PYR-1; A168E/H152N/H69R/K142P/K145R/L162I/R215G/S105P/S121M) (protein, homodimer; PLP on Lys195) MGIDTGTSNLVAVEPGAIREDTPAGSVIQYSDYEIDYSSPFAGGVAWIEGEYLPAEDAKISIFDTGFGRSDLTYTVAHVWHGNIFRLGDHLDRLLDGARKLRLDPGYTKDELADITKKCVMLSQLRESFVNLTITRGYGKRPGERDLSKLTNQVYIYAIPYIWAFPPEEQIFGTTAVVPRHVRRAGRNTVDPTIKNYQWGDLTAASFEAKDRGAGTAILMDADNCVAEGPGFNVCIVKDGKLASPSRNALPGITRKTVFEIAGAMGIEAALRDVTSHELYDADEIMAVTTAGGVTPINTLDGVPIGDGEPGPVTVAIRDRFWALMDEPGPLIEAIQY	8.20 mM	0.65 s⁻¹	79.2 M⁻¹ s⁻¹
